The target in assay [1] is H1 hemagglutinin (A/Solomon Islands/3/2006) (influenza A virus A/Solomon Islands/3/2006). In words: ELISA on coated HA, relative Kd (4-parameter fit). (ELISA stands for enzyme-linked immunosorbent assay.)
Assay [2] addresses H9 hemagglutinin (A/Hong Kong/1073/99) (influenza A virus A/Hong Kong/1073/99 (H9)). As to the kind of experiment: ELISA on coated HA, relative Kd (4-parameter fit).
Assay [3] has as its target H3 hemagglutinin (A/Brisbane/10/2007) (influenza A virus A/Brisbane/10/2007 (H3N2)). As to the kind of experiment: ELISA on coated HA, relative Kd (4-parameter fit).
Assay [4] deals with H7 hemagglutinin (A/Netherlands/219/2003) (influenza A virus A/Netherlands/219/2003 (H7N7)). In words: ELISA on coated HA, relative Kd (4-parameter fit).
Assay [5] addresses H3 hemagglutinin (A/Wisconsin/67/2005) (influenza A virus A/Wisconsin/67/2005 (H3N2)). As to the kind of experiment: ELISA on coated HA, relative Kd (4-parameter fit).
Assay [6] has as its target H3 hemagglutinin (A/Wyoming/03/2003) (influenza A virus A/Wyoming/03/2003 (H3N2)). As to the kind of experiment: ELISA on coated HA, relative Kd (4-parameter fit).
Assay [7] has as its target H5 hemagglutinin (A/Vietnam/1203/2004) (influenza A virus A/Vietnam/1203/2004 (H5N1)). As to the kind of experiment: ELISA on coated HA, relative Kd (4-parameter fit).
The target of assay [8] is H3 hemagglutinin (A/New York/55/2004) (influenza A virus A/New York/55/2004 (H3N2)). As to the kind of experiment: ELISA on coated HA, relative Kd (4-parameter fit).
For assay [9], the target named is H1 hemagglutinin (A/Puerto Rico/8/34) (influenza A virus A/Puerto Rico/8/34 (H1N1)) (UniProt P03452). As to the kind of experiment: cell-based or functional assay.
The target in assay [10] is H3 hemagglutinin of H3N2 strain X-31 (influenza A virus X-31 (H3N2)) (UniProt P03437). In words: cell-based or functional assay.
Assay [11] deals with H3 hemagglutinin (A/Brisbane/10/2007) (influenza A virus A/Brisbane/10/2007 (H3N2)).
The target in assay [12] is H7 hemagglutinin (A/Netherlands/219/2003) (influenza A virus A/Netherlands/219/2003 (H7N7)).
Assay [13] concerns the target H5 hemagglutinin (A/Vietnam/1203/2004) (influenza A virus A/Vietnam/1203/2004 (H5N1)).
For assay [14] the target is unchanged. The source holds these as a separate data set.
For assay [15], the target named is H9 hemagglutinin (A/Hong Kong/1073/99) (influenza A virus A/Hong Kong/1073/99 (H9)). As to the kind of experiment: ELISA on coated HA.
The target in assay [16] is H2 hemagglutinin (A/chicken/PA/2004) (influenza A virus A/chicken/PA/2004 (H2)). In words: ELISA on coated HA.
Assay [17] deals with HA from influenza B (B/Wisconsin/1/2010) (influenza B virus B/Wisconsin/1/2010). As to the kind of experiment: ELISA on coated HA.
In assay [18] the target is H3 hemagglutinin (A/Moscow/10/1999) (influenza A virus A/Moscow/10/1999 (H3)). In words: ELISA on coated HA.
Assay [19] addresses H3 hemagglutinin (A/Brisbane/10/2007) (influenza A virus A/Brisbane/10/2007 (H3N2)). In words: ELISA on coated HA.
Assay [20] addresses H7 hemagglutinin (A/Netherlands/219/2003) (influenza A virus A/Netherlands/219/2003 (H7N7)). In words: ELISA on coated HA.
The target of assay [21] is H3 hemagglutinin (A/Uruguay/716/2007) (influenza A virus A/Uruguay/716/2007 (H3)). In words: ELISA on coated HA.
In assay [22] the target is H16 hemagglutinin (A/black headed gull/Mongolia/1756/2006) (influenza A virus A/black headed gull/Mongolia/1756/2006 (H16)). In words: ELISA on coated HA.
Assay [23] has as its target H3 hemagglutinin (A/Wisconsin/67/2005) (influenza A virus A/Wisconsin/67/2005 (H3N2)). As to the kind of experiment: ELISA on coated HA.
Assay [24] addresses H9 hemagglutinin (A/Guinea fowl/HK/WF10/99) (influenza A virus A/Guinea fowl/HK/WF10/99 (H9)). As to the kind of experiment: ELISA on coated HA.
Assay [25] concerns the target H3 hemagglutinin (A/Wyoming/03/2003) (influenza A virus A/Wyoming/03/2003 (H3N2)). In words: ELISA on coated HA.
In assay [26] the target is H5 hemagglutinin (A/Vietnam/1203/2004) (influenza A virus A/Vietnam/1203/2004 (H5N1)). As to the kind of experiment: ELISA on coated HA.
Assay [27] has as its target H3 hemagglutinin (A/Perth/16/2006) (influenza A virus A/Perth/16/2006 (H3)). In words: ELISA on coated HA.
Assay [28] has as its target H3 hemagglutinin (A/New York/55/2004) (influenza A virus A/New York/55/2004 (H3N2)). As to the kind of experiment: ELISA on coated HA.
Assay [29] concerns the target H3 hemagglutinin (A/Brisbane/10/2007) (influenza A virus A/Brisbane/10/2007 (H3N2)). As to the kind of experiment: cell-based or functional assay.
Assay [30] addresses H3 hemagglutinin (A/Wyoming/03/2003) (influenza A virus A/Wyoming/03/2003 (H3N2)). In words: cell-based or functional assay.

By Kd is commonly meant the concentration at which binding is half-saturated. As usually defined, the koff is the rate constant with which the complex falls apart. The low end stands for slow dissociation, the high end for fast dissociation. The term kon denotes the rate constant with which the complex forms. Low readings indicate slow association, high ones fast association.

Where a chain is given by its changes, count along the chain named. Where two headings read alike, the source gives them in different places. Where only a bound is given, the exact number is not on record here.

B1: Ab 037 (antibody, V domains shown)
VH: EVQLLESGGGLVKPGQSLKLSCAASGFTFTSYAMHWVRQPPGKGLEWVAVVSYDGNYKYYADSVQGRFTISRDNSKNTLYLQMNSLRAEDTAVYYCAKDSRLRSLLYFEWLSQGYFNPWGQGTTLTVSS
VL: DIQMTQSPSSLSASVGDRVTITCRSSQSITFNYKNYLGWYQQKPGKAPKLLIYWGSYLESGVPSRFSGSGSGTDFTLTISSLQPEDFATYYCQQHYRTPPSFGQGTKVEIK
B1: the Kd in [1] was found to be 0.075 nM; in assay [2], 0.075 nM; in [3] it was 0.087 nM; in assay [4], 0.114 nM; in assay [5] it was 0.313 nM; in assay [6] it was 0.512 nM. In addition, the values for the Kd in assay [7] and in assay [8] were 0.059 nM and 0.14 nM, respectively. Also, the MIC in assay [9] worked out at 4 µg/mL; in assay [10], 8 µg/mL.

B2: Ab 032 (antibody, V domains shown)
VH: B1 VH with E1Q, S7T
VL: B1 VL with G38A
In the case of B2, the Kd in assay [11] is 0.234 nM; in assay [12] it was 0.145 nM; in assay [2], 0.079 nM; in assay [3] it was less than 0.025 nM; in [4], 0.106 nM; in assay [5], 0.208 nM. Further, the Kd in assay [6] was 0.262 nM; in [7], less than 0.025 nM; in assay [8], 0.094 nM. For the same molecule, the figures for the koff in assay [11], in [12] and in [14] were 0.000376 s⁻¹, 0.000161 s⁻¹ and less than 5e-06 s⁻¹, respectively. For the same molecule, the kon stood at 1.61e+06 M⁻¹ s⁻¹ in assay [11], 1.13e+06 M⁻¹ s⁻¹ in [12] and 988000 M⁻¹ s⁻¹ in [13].

B3: Ab 005 (antibody, V domains shown)
VH: B1 VH with E1Q, S7T
VL: DIVMTQSPDTVAVTVGERATINCKSSQTVTFNYKNYLAWYQQKPGQPPKLLIYWASTRESGVPDRFSGSGSGTDFTLTISSLQAEDVAVYYCQQHYRTPPSFGQGTKLDIK
As to B3, the Kd was less than 0.08 nM in assay [1]; 0.035 nM in assay [2]; 0.052 nM in assay [3]; 0.064 nM in [4]; 1.09 nM in assay [5]; 0.311 nM in assay [6]. The values for the equilibrium dissociation constant (Kd) in [7] and in assay [8] were 0.038 nM and 0.065 nM, respectively. Also, the MIC in assay [9] and in [10] was 10 µg/mL in each case.

B4: Ab 038 (antibody, V domains shown)
VH: B1 VH with E1Q, S7T
VL: B1 VL
As for B4, the Kd in assay [1] is 0.064 nM; in assay [2], less than 0.025 nM; in [3] it was less than 0.025 nM; in assay [4] it was 0.119 nM; in [5], 0.199 nM; in assay [6] it was 0.515 nM. Further, the Kd in assay [7] was found to be 0.087 nM; in assay [8], 0.102 nM. In addition, the MIC in [9] was 2 µg/mL; in assay [10], 4 µg/mL.

B5: Ab 044 (antibody, V domains shown)
VH: B1 VH with E1Q, S7T
VL: B1 VL with N32D, G38A
For B5, the Kd in assay [15], in [16], in [17], in assay [18], in assay [19] and in [20] was less than 0.5 nM each time. Besides, the Kd in assay [21], in assay [22], in assay [23], in assay [24], in assay [25] and in assay [26] was less than 0.5 nM in each case. The Kd in assay [27] and in assay [28] was less than 0.5 nM throughout. In addition, the EC50, Neutral Red (CPE inhibition) came out at 0.3 µg/mL in assay [29] and 6.8 µg/mL in assay [30].

B6: Ab 031 (antibody, V domains shown)
VH: B1 VH
VL: B1 VL with G38A
For the molecule B6, the Kd in [1] was less than 0.025 nM; in assay [2], less than 0.025 nM; in assay [3], 0.068 nM; in [4], 0.091 nM; in assay [5] it was 0.253 nM; in [6], 0.331 nM. Moreover, the Kd is less than 0.025 nM in assay [7] and 0.059 nM in assay [8]. The MIC in assay [9] is 1 µg/mL; in [10] it was 20 µg/mL.

B7: Ab 004 (antibody, V domains shown)
VH: B1 VH with E1Q, S7T
VL: B3 VL with V11L, V15L, N22Q, S80T
Consider B7, for which the Kd in assay [1] was less than 0.08 nM; in assay [2], 0.06 nM; in assay [3], less than 0.08 nM; in [4], 0.073 nM; in assay [5], 0.713 nM; in [6] it was 0.272 nM. Moreover, the Kd came out at 0.06 nM in [7] and 0.066 nM in assay [8]. Also, the MIC came to 12 µg/mL in assay [9] and 6 µg/mL in assay [10].

The values above are taken from patent US20220204592A1.
